The source of these data is patent publication US20100323905A1 (published 2010).

The target in experiment [1] is T1, recombinant full-length human PABPN1 (nuclear poly(A)-binding protein 1), T7-tagged and His-tagged, produced … (human, UniProt Q86U42 1-306).
T1 construct: also called recombinant PABPN1; T7-tagged PABPN1; not shown: T7 Tag and His Tag from vector pET28a
T1 sequence (looked up): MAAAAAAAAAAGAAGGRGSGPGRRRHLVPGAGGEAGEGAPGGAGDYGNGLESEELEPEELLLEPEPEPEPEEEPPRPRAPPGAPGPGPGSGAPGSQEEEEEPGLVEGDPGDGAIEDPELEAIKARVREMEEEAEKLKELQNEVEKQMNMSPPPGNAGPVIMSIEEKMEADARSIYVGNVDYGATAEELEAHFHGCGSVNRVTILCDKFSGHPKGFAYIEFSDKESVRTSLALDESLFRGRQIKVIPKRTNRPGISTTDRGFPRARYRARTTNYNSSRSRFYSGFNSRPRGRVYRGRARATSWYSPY
In words: BIAcore affinity measurement (SPR). (In general: Surface plasmon resonance follows binding to a sensor surface in real time, without labels.)

Experiment [2] addresses T1, recombinant full-length human PABPN1 …. In words: BIAcore affinity measurement (SPR). The source holds these as a separate data set.
The target in experiment [3] is T2, native PABPN1 purified from bovine calf thymus (bovine, UniProt Q28165 2-306).
T2 sequence (looked up): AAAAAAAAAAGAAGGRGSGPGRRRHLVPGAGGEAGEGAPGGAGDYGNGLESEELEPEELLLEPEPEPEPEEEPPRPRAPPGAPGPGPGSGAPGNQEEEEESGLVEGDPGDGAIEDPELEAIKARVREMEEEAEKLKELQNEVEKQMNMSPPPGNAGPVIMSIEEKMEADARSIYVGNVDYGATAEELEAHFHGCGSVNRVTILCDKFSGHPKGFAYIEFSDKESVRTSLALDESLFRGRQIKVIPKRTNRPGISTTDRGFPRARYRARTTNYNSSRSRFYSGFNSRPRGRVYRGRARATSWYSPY
In words: sandwich ELISA: 3F5 coated, native PABPN1 captured.

A further experiment addresses T3, beta amyloid Aβ 1-42 (UniProt P05067 672-713).
T3 construct: domain: Aβ 1-42; The numbers 1-42 count on the Aβ peptide, not on the precursor; In immunohistochemistry the target is amyloid deposited in human brain sections; also called amyloid b-42; Amyloid-b-42
In words: ELISA. On the technique in general: ELISA stands for enzyme-linked immunosorbent assay.

Experiment [4] concerns the target T4, PABPN1 point mutant V126S (UniProt Q86U42 1-306, limits assumed).
T4 sequence (looked up): T1 sequence (looked up) with V126S
In words: Western blot of purified mutant proteins. On the technique in general: A western blot detects proteins with antibodies after separation by electrophoresis.
From the text: (§1) Proteins were separated by SDS-PAGE followed by Coomassie Brilliant Blue staining or transfer to PVDF Western blotting membranes (Roche Diagnostics, Almere, The Netherlands) using the Mini-PROTEAN 8 system for gel electrophoresis and the Mini Trans-Blot Cell for blotting of the proteins (Bio-Rad Laboratories, Hercules, Calif., USA). […] For phage detection a 10,000-fold dilution of a HRP-conjugated monoclonal antibody which binds to the phage coat protein was used (Amersham Biosciences, Uppsala, Sweden).

Experiment [5] concerns the target T5, PABPN1 point mutant M129A (UniProt Q86U42 1-306, limits assumed).
T5 sequence (looked up): T1 sequence (looked up) with M129A
In words: Western blot of purified mutant proteins.
From the text: as §1

Experiment [6] has as its target T1, recombinant full-length human PABPN1 …. In words: BIAcore affinity measurement (SPR, CM5 chip).
Method: Affinities were calculated using Biacore evaluation software.
Experiment [7] has as its target T2, native PABPN1 purified from bovine calf …. In words: affinity measurement (Biacore).

Positions count from the first letter of the chain named.

T3 sequence (P05067 672-713 limits assumed): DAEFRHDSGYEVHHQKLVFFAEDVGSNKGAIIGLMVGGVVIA

B1: VHH 08 (VHH)
VHH: EVQLVESGGGLVQPGGSLRLSCVASGRTSRISRMAWFRQVPGNERELVATMSSSGITSYAGSVKGRFTISRDNAKNTVDLQMNSLKPEDTAVYYCKYSSRWNIYWGQGTQVTVSS
notes: Alignment gaps removed
What is called Kd is the concentration at which binding is half-saturated. Take B1: the equilibrium dissociation constant (Kd) in experiment [1] and in experiment [2] was 57 nM each time.

B2: VHH 3E9 (VHH)
VHH: QVQLQESGGGLVQPGGSLRLSCVASGFTFSDNAMSWVRRAPGKGLEWVSAINRAGDSARYADSVKGRFTISRDNAKNTLYLQMNSLKPEDTAVYYCTNGGNYRGQGTQVTVSA
On to B2, for which the Kd in experiment [2] was found to be 14 nM.

B3: VHH 29 (VHH)
VHH: QVQLVESGGGLVQAGDSLRLSCAASGRTFSSYVMGWFRQAPGKEREFVAAVTGGGISTYYADSVKGRFTISRDNAKNTVYLQMNSLTPEDTAVYYCYARRLNSWGQGTQVTISS
notes: also called antibody fragment 29
For B3, the binding result in experiment [3] was “binds”. For the same molecule, the Kd in experiment [1] and in experiment [2] was 11 nM in each case.

B4: VHH 11D (VHH)
VHH: AVQLVESGGGLVQAGGSLRLSCAASQRTFSSYVMGWFRQAPGKEREFVAAIGWSGGSTAYADSVKGRFTISRDNARNTVYLQMNSLKPEDTAVYYCASAPTRWVPRDSRFYDRWGQGTRVTVSS
notes: Selected against amyloid b-42
B4: in the experiment with beta amyloid Aβ 1-42, the binding result is recorded as “binds”.

B5: VHH 3A (VHH)
VHH: B4 VHH with Q13R, A14D, Q26G
notes: Selected against Aβ 1-42; 15N-labeled in the NMR titration; also called anti-Aβ1-42 VHH 3A
On to B5, for which the binding result with beta amyloid Aβ 1-42 is on record as “binds”.

B6: VHH 18 (VHH)
VHH: AVQLVESGGGLVQAGGSLRLSCAASGSIVSLATMGWYRQAPGNQRELVATMSSSGITSYAGSVKGRFTYSRDNAKNTVDLQMNSLKPEDTAVYYCKYSSRWNIYWGQGTLVTVSS
notes: Alignment gaps removed
As to B6, the Kd in experiment [1] and in experiment [2] was 7 nM throughout.

B7: VHH 3F5 (VHH)
VHH: EVQLVESGGGLVQAGGSLRLSCAASGRTFSGYGMGWFRQAPGKEREFVAAISWRGGNTYYADSVKGRFTISRDNAKNTVWLQMNSLKPEDTAVYYCSGFVRTRDDPSRIRNYWGQGTQVTVST
notes: also called anti-PABPN1 VHH (3F5)
For the molecule B7, the binding result in experiment [4] and in experiment [5] was “no binding” throughout. The Kd in experiment [6] and in experiment [7] was 5 nM throughout.

B8: VHH 3A9 (VHH)
VHH: QVQLVESGGDLVQAGGSLRLSCAASGHTFDSYGMGWFRQRPGKGREFVAAITMIGGSTHYADSAKGRFTISRDNTKNTISLQMNSLKPEDTAVYYCHAFSRSRFEGYWGQGIQVTVSS
Regarding B8, the Kd in experiment [2] was 8 nM.
